These results are taken from patent US20240000957A1 (published 2024).

In one test the target is T1, Mouse EphA2 Fc fusion (Mouse, UniProt Q03145 26-535, limits assumed).
T1 construct: Bought Fc fusion; also called R&D Systems 639-A2; not shown: Fc of the bought fusion
The test is described as follows: SPR, Fc-tagged EphA2 captured by anti-human IgG. (SPR reads the build-up and loss of mass on a sensor chip optically.)

A further test addresses T2, Human EphA2 (Human, UniProt P29317 24-537, limits assumed, biotinylated, 0.95 mol biotin/monomer).
T2 construct: also called Eph receptor tyrosine kinase A2
As to the kind of experiment: SPR, biotinylated EphA2 on streptavidin chip.

The target in a further test is Rat EphA2 (Rat, UniProt D3ZBN3 23-538, biotinylated, 1.4 mol biotin/monomer). The test is described as follows: SPR, biotinylated EphA2 on streptavidin chip.
The next test has as its target T3, Human EphB4 Fc fusion (Human, UniProt P54760 16-539).
T3 construct: Bought Fc fusion; also called Sino Biologics 10235-H02H; not shown: Fc of the bought fusion
T3 sequence (looked up): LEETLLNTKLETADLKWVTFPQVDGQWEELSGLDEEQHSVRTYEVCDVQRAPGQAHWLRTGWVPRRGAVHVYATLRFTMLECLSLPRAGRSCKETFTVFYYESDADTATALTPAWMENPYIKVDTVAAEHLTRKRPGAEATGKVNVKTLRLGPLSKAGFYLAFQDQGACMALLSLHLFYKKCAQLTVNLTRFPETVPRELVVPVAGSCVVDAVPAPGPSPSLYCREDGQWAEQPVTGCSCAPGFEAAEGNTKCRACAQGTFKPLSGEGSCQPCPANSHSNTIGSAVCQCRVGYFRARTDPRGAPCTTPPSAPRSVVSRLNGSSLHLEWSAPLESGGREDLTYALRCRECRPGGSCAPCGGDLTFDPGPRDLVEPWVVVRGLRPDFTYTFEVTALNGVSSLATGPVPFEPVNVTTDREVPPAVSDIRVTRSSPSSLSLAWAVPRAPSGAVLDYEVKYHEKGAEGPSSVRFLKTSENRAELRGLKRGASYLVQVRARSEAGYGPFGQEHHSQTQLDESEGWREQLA
As to the kind of experiment: SPR, Fc-tagged protein captured by anti-human IgG.

The next test has as its target T4, Human EphA3 Fc fusion (Human, UniProt P29320 21-541, limits assumed).
T4 construct: Bought Fc fusion; also called R&D Systems 6444-A3; not shown: Fc of the bought fusion
T4 sequence (looked up): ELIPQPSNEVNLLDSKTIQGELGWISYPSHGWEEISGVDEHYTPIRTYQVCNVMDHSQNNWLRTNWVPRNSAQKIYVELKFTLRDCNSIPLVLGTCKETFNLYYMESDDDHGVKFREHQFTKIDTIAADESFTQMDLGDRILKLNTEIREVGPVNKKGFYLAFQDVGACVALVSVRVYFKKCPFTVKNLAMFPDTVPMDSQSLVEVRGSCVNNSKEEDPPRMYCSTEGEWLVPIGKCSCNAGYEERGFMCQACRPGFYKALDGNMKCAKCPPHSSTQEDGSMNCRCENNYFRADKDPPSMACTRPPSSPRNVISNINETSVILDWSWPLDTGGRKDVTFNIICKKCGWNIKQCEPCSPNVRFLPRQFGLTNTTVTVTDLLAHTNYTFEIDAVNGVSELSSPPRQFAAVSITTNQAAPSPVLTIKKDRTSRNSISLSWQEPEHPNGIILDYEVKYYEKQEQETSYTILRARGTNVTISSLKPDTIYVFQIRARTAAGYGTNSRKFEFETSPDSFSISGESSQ
As to the kind of experiment: SPR, Fc-tagged protein captured by anti-human IgG.

The target in another test is T5, Human EphA4 Fc fusion (Human, UniProt P54764 20-547).
T5 construct: Bought Fc fusion; also called Sino Biologics 11314-H03H; not shown: Fc of the bought fusion
As to the kind of experiment: SPR, Fc-tagged protein captured by anti-human IgG.

The next test addresses T6, Human EphA1 Fc fusion (Human, UniProt P21709 26-547).
T6 construct: Bought Fc fusion; also called Sino Biologics 15789-H02H; not shown: Fc of the bought fusion
T6 sequence (looked up): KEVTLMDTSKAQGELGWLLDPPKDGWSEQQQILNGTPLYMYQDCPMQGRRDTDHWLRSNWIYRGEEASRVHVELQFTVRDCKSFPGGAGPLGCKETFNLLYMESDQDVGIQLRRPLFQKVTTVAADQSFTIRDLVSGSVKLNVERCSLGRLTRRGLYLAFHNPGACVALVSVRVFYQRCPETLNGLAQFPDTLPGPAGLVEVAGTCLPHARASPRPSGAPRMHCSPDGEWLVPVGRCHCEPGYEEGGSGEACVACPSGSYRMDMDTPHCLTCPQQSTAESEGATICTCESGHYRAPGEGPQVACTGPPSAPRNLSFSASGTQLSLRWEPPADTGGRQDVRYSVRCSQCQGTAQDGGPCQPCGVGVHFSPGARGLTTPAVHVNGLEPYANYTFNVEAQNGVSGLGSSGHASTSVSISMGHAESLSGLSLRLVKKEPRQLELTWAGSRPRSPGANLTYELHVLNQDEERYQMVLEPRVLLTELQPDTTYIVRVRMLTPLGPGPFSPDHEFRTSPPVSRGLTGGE
The test is described as follows: SPR, Fc-tagged protein captured by anti-human IgG.

The target in the next test is T7, Human EphA7 Fc fusion (Human, UniProt Q15375 28-555, limits assumed).
T7 construct: Bought Fc fusion; also called R&D Systems 6756-A7; not shown: Fc of the bought fusion
T7 sequence (looked up): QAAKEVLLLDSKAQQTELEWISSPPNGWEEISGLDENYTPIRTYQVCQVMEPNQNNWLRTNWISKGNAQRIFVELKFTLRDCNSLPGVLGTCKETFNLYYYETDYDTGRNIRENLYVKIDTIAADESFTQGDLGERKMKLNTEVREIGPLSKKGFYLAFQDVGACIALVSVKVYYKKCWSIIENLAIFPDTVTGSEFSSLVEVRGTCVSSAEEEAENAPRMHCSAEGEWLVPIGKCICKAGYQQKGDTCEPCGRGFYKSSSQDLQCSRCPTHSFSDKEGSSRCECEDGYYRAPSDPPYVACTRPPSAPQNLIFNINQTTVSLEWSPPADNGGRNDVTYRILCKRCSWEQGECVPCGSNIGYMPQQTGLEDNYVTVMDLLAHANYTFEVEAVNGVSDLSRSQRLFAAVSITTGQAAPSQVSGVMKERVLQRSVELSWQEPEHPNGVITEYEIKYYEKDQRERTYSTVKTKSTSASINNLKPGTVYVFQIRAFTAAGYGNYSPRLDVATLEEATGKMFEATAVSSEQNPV
The test is described as follows: SPR, Fc-tagged protein captured by anti-human IgG.

T1 sequence (Q03145 26-535 limits assumed): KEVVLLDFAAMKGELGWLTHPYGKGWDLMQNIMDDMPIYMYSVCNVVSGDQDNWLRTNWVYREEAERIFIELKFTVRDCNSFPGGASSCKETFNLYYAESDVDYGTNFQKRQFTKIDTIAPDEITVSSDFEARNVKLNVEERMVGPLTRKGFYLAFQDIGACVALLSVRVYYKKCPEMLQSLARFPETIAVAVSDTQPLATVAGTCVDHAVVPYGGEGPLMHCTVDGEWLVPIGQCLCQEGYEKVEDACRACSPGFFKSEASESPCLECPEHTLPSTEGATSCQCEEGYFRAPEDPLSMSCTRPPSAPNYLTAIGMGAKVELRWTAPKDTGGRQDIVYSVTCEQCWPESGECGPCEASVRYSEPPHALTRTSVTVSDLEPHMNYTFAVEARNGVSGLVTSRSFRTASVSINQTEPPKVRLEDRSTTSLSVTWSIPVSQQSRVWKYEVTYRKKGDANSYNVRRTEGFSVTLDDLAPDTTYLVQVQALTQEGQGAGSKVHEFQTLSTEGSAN
T2 sequence (P29317 24-537 limits assumed): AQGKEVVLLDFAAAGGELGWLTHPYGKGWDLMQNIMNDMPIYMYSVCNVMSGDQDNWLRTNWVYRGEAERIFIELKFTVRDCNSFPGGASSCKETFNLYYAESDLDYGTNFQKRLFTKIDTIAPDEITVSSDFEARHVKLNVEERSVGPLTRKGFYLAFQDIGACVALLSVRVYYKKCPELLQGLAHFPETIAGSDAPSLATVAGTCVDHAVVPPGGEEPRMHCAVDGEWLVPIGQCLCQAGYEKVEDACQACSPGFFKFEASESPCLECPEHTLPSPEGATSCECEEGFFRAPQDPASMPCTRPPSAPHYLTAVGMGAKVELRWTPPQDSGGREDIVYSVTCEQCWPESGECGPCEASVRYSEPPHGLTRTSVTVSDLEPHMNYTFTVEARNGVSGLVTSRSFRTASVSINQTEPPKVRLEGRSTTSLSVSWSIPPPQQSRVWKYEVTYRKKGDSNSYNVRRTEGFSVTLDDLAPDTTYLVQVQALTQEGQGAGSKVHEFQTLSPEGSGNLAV
T5 sequence (P54764 20-547 limits assumed): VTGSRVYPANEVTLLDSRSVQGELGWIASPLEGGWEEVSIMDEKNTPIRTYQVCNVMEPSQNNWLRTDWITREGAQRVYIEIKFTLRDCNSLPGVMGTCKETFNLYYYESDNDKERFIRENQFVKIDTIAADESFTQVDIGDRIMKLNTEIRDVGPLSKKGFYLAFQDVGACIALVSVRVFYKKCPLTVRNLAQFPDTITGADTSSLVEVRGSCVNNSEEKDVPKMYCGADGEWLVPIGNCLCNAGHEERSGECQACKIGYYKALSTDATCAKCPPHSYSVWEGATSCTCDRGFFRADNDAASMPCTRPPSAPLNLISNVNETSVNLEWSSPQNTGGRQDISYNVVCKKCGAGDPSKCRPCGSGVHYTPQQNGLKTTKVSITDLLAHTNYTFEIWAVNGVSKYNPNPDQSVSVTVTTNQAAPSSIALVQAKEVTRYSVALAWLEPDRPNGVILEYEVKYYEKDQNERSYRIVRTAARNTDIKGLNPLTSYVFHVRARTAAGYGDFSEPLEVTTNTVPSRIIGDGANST

B1: BCY6033 (peptide)
peptide: AXDCPLVNPLCLHPGWTC
modifications: not fully specified; N-terminal (β-Ala)-Sar10 spacer precedes SEQ ID NO: 11; HArg (homoarginine) at residue 2 of SEQ ID NO: 11; three Cys cyclised on the TATA scaffold; ValCit-MMAE (MMAE-PABC-Cit-Val-glutarate) on the N-terminal amine
As for B1, the Kd in the test with Mouse EphA2 Fc fusion came to 21.8 nM; in the test with Human EphA2, 3.41 nM; with Rat EphA2, 166 nM. Further, the t1/2 turned out to be 1.8 min with Mouse EphA2 Fc fusion, 3.5 min with Human EphA2 and 2.6 min in the test with Rat EphA2. In addition, the binding result with Human EphB4 Fc fusion is recorded as “no binding (tested: 20 µM)”; with Human EphA3 Fc fusion it was “no binding (tested: 5 µM)”; with Human EphA4 Fc fusion, “no binding (tested: 5 µM)”; in the test with Human EphA1 Fc fusion it was “no binding (tested: 5 µM)”; with Human EphA7 Fc fusion, “no binding (tested: 20 µM)”.

B2: BCY6082 (peptide)
peptide: AXDCPLVNPLCLHPGWTC
modifications: not fully specified; N-terminal (β-Ala)-Sar10 spacer precedes SEQ ID NO: 11; HArg (homoarginine) at residue 2 of SEQ ID NO: 11; three Cys cyclised on the TATA scaffold; DM1-SS(SO3H)- (DM1-SO3H-SPDB) on the N-terminal amine
Regarding B2, the Kd came to 18.3 nM with Mouse EphA2 Fc fusion, 2.42 nM with Human EphA2 and 28.8 nM in the test with Rat EphA2. Further, the results for the t1/2 in the test with Mouse EphA2 Fc fusion, with Human EphA2 and with Rat EphA2 were 1.9 min, 4.8 min and 3.2 min, respectively. Besides, the binding result with Human EphB4 Fc fusion is reported as “no binding (tested: 20 µM)”; in the test with Human EphA3 Fc fusion, “no binding (tested: 5 µM)”; in the test with Human EphA4 Fc fusion, “no binding (tested: 5 µM)”; with Human EphA1 Fc fusion, “no binding (tested: 5 µM)”; in the test with Human EphA7 Fc fusion, “no binding (tested: 20 µM)”.

The Kd is the concentration at which binding is half-saturated.
